The results in this text go back to FireProtDB (doi:10.1002/pro.343).

The chains are these.
B1: Multidrug resistance operon repressor, P52003 (parent)
chain: MNYPVNPDLMPALMAVFQHVRTRIQSELDCQRLDLTPPDVHVLKLIDEQRGLNLQDLGRQMCRDKALITRKIRELEGRNLVRRERNPSDQRSFQLFLTDEGLAIHQHAEAIMSRVHDELFAPLTPVEQATLVHLLDQCLAAQPLEDI

The variants in the first data set derive from B1. As to conditions: Pseudomonas aeruginosa (strain ATCC 15692 / DSM 22644 / CIP 104116 / JCM 14847 / LMG 12228 / 1C / PRS 101 / PAO1); pH 7.2; 22 °C; GdnHCl; CD; Sodium phosphate 10 mM; transition: 3; structure 1LNW; whole UniProt chain shown.
As for MNYPVNPDLMPALMAVFQHVWTRIQSELDCQRLDLTPPDVHVLKLIDEQRGLNLQDLGRQMCRDKALITRKIRELEGRNLVRRERNPSDQRSFQLFLTDEGLAIHQHAEAIMSRVHDELFAPLTPVEQATLVHLLDQCLAAQPLEDI [R21W], the “denaturant midpoint (higher = more stable)” value turned out to be 2.6 M.

The data set is the same for the next values; noted with them: Pseudomonas aeruginosa (strain ATCC 15692 / DSM 22644 / CIP 104116 / JCM 14847 / LMG 12228 / 1C / PRS 101 / PAO1); pH 7.2; Thermal; CD; Sodium phosphate 10 mM; structure 1LNW; whole UniProt chain shown.
With MNYPVNPDLMPAMMAVFQHVRTRIQSELDCQRLDLTPPDVHVLKLIDEQRGLNLQDLGRQMCRDKALITRKIRELEGRNLVRRERNPSDQRSFQLFLTDEGLAIHQHAEAIMSRVHDELFAPLTPVEQATLVHLLDQCLAAQPLEDI [L13M], the Tm (commonly the temperature at which the thermal transition is half complete) was 47.8 °C.
